{"source": "patent US7446182", "key": {"[1]": {"molecular_target": "Bacillus anthracis protective antigen (PA), 83 kDa polypeptide (Bacillus anthracis) (UniProt P13423)", "sequence (P13423 30-764 limits assumed)": "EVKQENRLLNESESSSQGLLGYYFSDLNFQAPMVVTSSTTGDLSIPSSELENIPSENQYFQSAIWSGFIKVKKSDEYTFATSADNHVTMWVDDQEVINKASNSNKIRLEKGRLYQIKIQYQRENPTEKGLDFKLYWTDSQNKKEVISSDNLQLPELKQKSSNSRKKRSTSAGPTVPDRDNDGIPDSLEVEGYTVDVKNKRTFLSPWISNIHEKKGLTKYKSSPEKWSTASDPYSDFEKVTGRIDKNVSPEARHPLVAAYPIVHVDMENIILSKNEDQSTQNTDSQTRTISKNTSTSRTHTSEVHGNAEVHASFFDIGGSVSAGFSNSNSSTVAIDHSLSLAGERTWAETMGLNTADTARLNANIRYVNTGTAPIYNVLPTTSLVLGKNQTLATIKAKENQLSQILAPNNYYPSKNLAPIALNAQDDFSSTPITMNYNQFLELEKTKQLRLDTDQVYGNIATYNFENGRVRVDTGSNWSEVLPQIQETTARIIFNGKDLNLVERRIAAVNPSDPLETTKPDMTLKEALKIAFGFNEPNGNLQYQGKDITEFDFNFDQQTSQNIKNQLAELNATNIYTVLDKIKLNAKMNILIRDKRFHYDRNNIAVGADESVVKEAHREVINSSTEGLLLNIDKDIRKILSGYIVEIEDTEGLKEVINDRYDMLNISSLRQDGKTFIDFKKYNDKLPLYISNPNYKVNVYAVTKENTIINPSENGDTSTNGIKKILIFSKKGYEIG"}, "[2]": {"molecular_target": "Bacillus anthracis protective antigen (PA), 83 kDa polypeptide (Bacillus anthracis) (UniProt P13423)", "remark": "listed apart in the source"}}, "data": [{"substance": "14B7 scFv with the mutation L97Leu:Ala", "values": [{"measurement": "Kd", "setting": "[1]", "result": 63, "unit": "nM"}, {"measurement": "koff", "setting": "[1]", "result": 0.019, "unit": "s⁻¹"}, {"measurement": "kon", "setting": "[1]", "result": 300000, "unit": "M⁻¹ s⁻¹"}, {"measurement": "fold higher KD than 14B7", "setting": "[2]", "result": "> 5", "unit": "fold"}]}]}
